This assay concerns HEK cells. As to the kind of experiment: Transient DNA transfection of HEK cells, Annexin/Sytox staining, flow cytometry. The class given is cell-based, human. As to conditions: for pyroptosis, Sytox staining: with TEVP / cognate protease. As for the experimental part: HEK cells were transiently co-transfected with DNA encoding the circuits, often along with Cherry, a fluorescent protein marker, and cells were analyzed by flow cytometry 16 to 24 hours later. To quantify cell death, the cells were strained with Annexin, Sytox, or both. Annexin stains apoptotic cells by binding to phosphatidylserine exposed on the outer leaflet, and pyroptotic cells by binding to phosphatidylserine in the inner leaflet after membrane permeabilization. In contrast, Sytox, a membrane-impermeable dye, primarily stains pyroptotic cells. Therefore, apoptotic cells are typically Annexin-high and Sytox-low, while pyroptotic cells are Annexin-high and Sytox-high (FIG. 7B). For simplicity, in experiments involving only a single death mode, a single relevant dye was often used. To focus on cells influenced by the circuits, the fraction of Annexin- or Sytox-positive cells was calculated after gating on the fluorescent co-transfection marker (FIG. 7C).
On the day before transfection, HEK cells were seeded at a density of 0.3-0.6 million cells per well on a 12-well plate, 0.1-0.3 million cells per well on a 24-well plate, or 15,000-50,000 cells per well on a 96-well plate. The cells were allowed to attach to the plate overnight, for at least 8 hours. On the day of transfection, we treated the cells with purified DNA plasmids encoding circuit components. In addition to plasmids encoding circuit components, we often included a plasmid encoding a fluorescent co-transfection marker, at roughly 50 ng DNA per well on a 24-well plate. Given the different number of molecular components in each synthetic circuit and their various relative ratios, the total amount of DNA ranged from 50 to 1 μg per well on a 24-well plate, and was scaled by […] when other 12-well or 96-well plates were used, respectively. On the same plate, we often equalized the total amount of DNA across all transfected wells, using a filler plasmid encoding the neomycin resistance gene. To transfect cells with plasmid DNA, we used three types of transfection reagents—Lipofectamine 2000 (Thermo Fisher), Lipofectamine 3000 (Thermo Fisher), and FuGENE HD (Promega), according to manufacturers' instructions. Briefly, for a typical transfection experiment on a 24-well plate, we mixed plasmids and the transfection reagent, around 200 ng of DNA per 1 μl of Lipofectamine 2000, in 25 μl of Opti-MEM reduced serum medium (Thermo Fisher), incubated the mixture for 5-10 min at room temperature, and then added another 25 μl of Opti-MEM before transferring the mixture dropwise to culture wells. We also performed some transfection experiments using the Lipofectamine 3000 kit (Thermo Fisher), at a ratio of 2,000 ng of DNA, 2 ul of 4 ul of P3000, and 3 μl of Lipofectamine 3000. We similarly diluted the mixture in Opti-MEM before adding it to cells. For transfection with FuGENE, we used a ratio of 4 μl FuGENE:1 μg of DNA, and incubated the DNA-FuGENE mixture at room temperature for 5 min before transfection. To enable protein expression from plasmids with a doxycycline-inducible promoter, doxycycline was added to the cell culture at a final concentration of 100 ng/mL. In experiments involving Q-VD-OPh, the compound was added to the cell culture at a final concentration of 30 μM, immediately after the cells received the transfection mixture. To transfect cells with in vitro transcribed mRNA, Lipofectamine MessengerMax (Thermo Fisher) was used. Briefly, for transfection of one well in a 96-well plate, 0.1 μL of Lipofectamine MessengerMAX was diluted in 1.25 μL Opti-MEM and incubated for 10 minutes at room temperature. mRNA was then added to Opti-MEM to the appropriate conditions at the following amounts: 12.5 ng of fluorescent co-transfection marker, 56.25 ng of protease, and 56.25 ng of engineered executioner. Diluted mRNA was then added to diluted MessengerMAX reagent and incubated for 5 minutes at room temperature before addition to Jurkat or THP-1 cells in RPMI media. […]
(In general: In flow cytometry, cells or beads pass a laser one at a time.)

Where [1] appears, read: co-transfected with wildtype GSDME, TEVP and TEVP-activatable caspase-3.

We go through seven molecules from patent US20250152743A1, “SYNPOPTOSIS CIRCUITS FOR PROGRAMMABLE CELL DEATH CONTROL” (California Institute of Technology, priority 2023, published 2025).

Like-named read-outs stand apart in the source and are kept apart here.

B1: I217N: GSDME N-terminal domain mutant I217N; SEQ ID NO: 22 (protein)
chain: MGFAKATRNFLREVDADGDLIAVSNLNDSDKLQLLSLVTKKKRFWCWQRPKYQFLSLTLGDVLIEDQFPSPVVVESDFVKYEGKFANHVSGTLETALGKVKLNLGGSSRVESQSSFGTLRKQEVDLQQLIRDSAERTINLRNPVLQQVLEGRNEVLCVLTQKITTMQKCVISEHMQVEEKCGGIVGIQTKTVQVSATEDGNVTKDSNVVLEIPAATTNAYGVIELYVKLDGQFEFCLLRGKQGGFENKKRIDSVYLDPLVFREFAFIDMPD
As for B1, the “inhibition of wildtype GSDME N-induced pyroptosis” value is reported as “capable of inhibiting the wildtype counterpart” and the “pyroptotic activity of GSDME N-terminal domain mutant” value is given as “defective in inducing pyroptosis”. For the same molecule, under setting [1], the “apoptosis, Annexin levels” value is “permitting caspase-3-induced apoptosis, as read out by high Annexin levels” and the “pyroptosis, Sytox uptake” value is “suppressed pyroptosis, as evidenced by reduced Sytox uptake”. The “pyroptosis, Sytox uptake” value (co-transfected with wildtype GSDME, TEVP and TEVP-activatable caspase-3, listed as GSDME inhibitor) is on record as “pyroptosis could be attenuated to various degrees”. In addition, the “inhibition of wildtype GSDME N-induced pyroptosis” value (listed as GSDME N(mut)) was “inhibited wildtype GSDME N-induced pyroptosis”.

B2: wildtype GSDME: natural substrate for caspase-3; SEQ ID NO: 21 (protein)
chain: MGFAKATRNFLREVDADGDLIAVSNLNDSDKLQLLSLVTKKKRFWCWQRPKYQFLSLTLGDVLIEDQFPSPVVVESDFVKYEGKFANHVSGTLETALGKVKLNLGGSSRVESQSSFGTLRKQEVDLQQLIRDSAERTINLRNPVLQQVLEGRNEVLCVLTQKITTMQKCVISEHMQVEEKCGGIVGIQTKTVQVSATEDGNVTKDSNVVLEIPAATTIAYGVIELYVKLDGQFEFCLLRGKQGGFENKKRIDSVYLDPLVFREFAFIDMPDAAHGISSQDGPLSVLKQATLLLERNFHPFAELPEPQQTALSDIFQAVLFDDELLMVLEPVCDDLVSGLSPTVAVLGELKPRQQQDLVAFLQLVGCSLQGGCPGPEDAGSKQLFMTAYFLVSALAEMPDSAAALLGTCCKLQIIPTLCHLLRALSDDGVSDLEDPTLTPLKDTERFGIVQRLFASADISLERLKSSVKAVILKDSKVFPLLLCITLNGLCALGREHS
With B2, under “background of TEVP activating TEVP-activatable caspase-3”, the “mode of cell death, Sytox and Annexin double staining” value is listed as “caused pyroptosis in response to TEVP-mediated caspase-3 activation”. The “cell death by the protein alone” value (without caspase-3 activation) was “alone did not induce cell death”.

B3: FIG. 1D, third module: GSDMA N-terminal domain fused to TEVP-removable degron; SEQ ID NO: 18 (protein)
chain: MGSPVFEDVTRALVRELNPRGDLTPLDSLIDFKHFRPFCLVLRKRKSTLFWGARYVRTDYTLLDLLEPGSSPSDLTDSGNFSFKNMLDVQVQGLVEVPKTVKVKGTAGLSQSSTLEVQTLSVAPSALENLKKERKLSADHSFLNEMRYHEKNLYVVMEAVEAKQEVTVEQTGNANAIFSLPSLALLGLQGSLNNNKAVTIPKGCVLAYRVRLLRVFLFNLWDIPYICNDSMQTFPKIRRVPCSAFISPTQMISEEPEEEKLIGEGGSGLENLYFQSGSGSISLIAALAVDYVIGMENAMPWNLPADLAWFKRNTLNKPVIMGRHTWESIGRPLPGRKNIILSSQPSTDDRVTWVKSVDEAIAACGDVPEIMVIGGGRVIEQFLPKAQKLYLTHIDAEVEGDTHFPDYEPDDWESVFSEFHDADAQNSHSYCFEILERR
As to B3, the “pyroptosis, Sytox staining” value is “removal of the degron by TEVP also induced pyroptosis”.

B4: silencer: leucine zipper-fused GSDMA C-terminal domain; SEQ ID NO: 43 (protein)
chain: MGSEQLEKKLQALEKKLAQLEWKNQALEKKLAQGGSGSSMHEDFKTLKEEVQRETQEVEKLSPVGRSSLLTSLSHLLGKKKELQDLEQKLEGALDKGQKVTLEALPKDVLLSKDAMDAILYFLGALTELTEEQLKILVKSLEKKILPVQLKLVESTLEQNFLQDKEGVFPLQPDLLSSLGEEELTLTEALVGLSGLEVQRSGPQYAWDPDTRHNLCALYAGLSLLHLLSRKSNALTYCALS
Turning to B4, the “inhibition of pyroptosis induced by wildtype GSDMA N-terminal domain” value is given as “did not inhibit pyroptosis” and the “inhibition of pyroptosis induced by zipper-attached GSDMA N-terminal domain (GSDMA N-Z)” value was “markedly suppressed pyroptosis”. Besides, the “inhibition of pyroptosis induced by zipper-attached GSDMA N-terminal domain (GSDMA N-Z)” value (listed as GSDMA Z-C) was “potently inhibited an engineered active executioner”.

B5: FIG. 1D, fifth module: GSDMA N-terminal domain fused to TEVP site-caged N-degron; SEQ ID NOs: 20, 40 (protein)
chain: MGSENLYFQRHKSGAWKLPVSLVKPVFEDVTRALVRELNPRGDLTPLDSLIDFKHFRPFCLVLRKRKSTLFWGARYVRTDYTLLDLLEPGSSPSDLTDSGNFSFKNMLDVQVQGLVEVPKTVKVKGTAGLSQSSTLEVQTLSVAPSALENLKKERKLSADHSFLNEMRYHEKNLYVVMEAVEAKQEVTVEQTGNANAIFSLPSLALLGLQGSLNNNKAVTIPKGCVLAYRVRLLRVFLFNLWDIPYICNDSMQTFPKIRRVPCSAFISPTQMISEEPEEEKLIGEMGSENLYFQRHKSGAWKLPVSLVKPVFEDVTRALVRELNPRGDLTPLDSLIDFKHFRPFCLVLRKRKSTLFWGARYVRTDYTLLDLLEPGSSPSDLTDSGNFSFKNMLDVQVQGLVEVPKTVKVKGTAGLSQSSTLEVQTLSVAPSALENLKKERKLSADHSFLNEMRYHEKNLYVVMEAVEAKQEVTVEQTGNANAIFSLPSLALLGLQGSLNNNKAVTIPKGCVLAYRVRLLRVFLFNLWDIPYICNDSMQTFPKIRRVPCSAFISPTQMISEEPEEEKLIGE
Consider B5, for which the “pyroptosis, Sytox staining” value was “allowed protease-mediated suppression of pyroptosis”.

B6: tobacco vein mottling virus protease (protein)
chain: MGSSKALLKGVRDFNPISACVCLLENSSDGHSERLFGIGFGPYIIANQHLFRRNNGELTIKTMHGEFKVKNSTQLQMKPVEGRDIIVIKMAKDFPPFPQKLKFRQPTIKDRVCMVSTNFQQKSVSSLVSESSHIVHKEDTSFWQHWITTKDGQCGSPLVSIIDGNILGIHSLTHTTNGSNYFVEFPEKFVATYLDAADGWCKNWKFNADKISWGSFTLVEDAPEDDFMAKKTVAAIMDS
notes: viral input protease
As for B6, the “activation of cognate engineered GSDMs containing the cleavage sites” value (tev, tvmv and hcv sites) was “orthogonally activated their cognate engineered GSDMs”.

B7: FIG. 1D, fourth module: GSDMA N-terminal domain with internal TEVP cleavage site; SEQ ID NO: 19 (protein)
chain: MGSPVFEDVTRALVRELNPRGDLTPLDSLIDFKHFRPFCLVLRKRKSTLFWGARYVRTDYTLLDLLEPGSSPSDLTDSGNFSFKENLYFQSNMLDVQVQGLVEVPKTVKVKGTAGLSQSSTLEVQTLSVAPSALENLKKERKLSADHSFLNEMRYHEKNLYVVMEAVEAKQEVTVEQTGNANAIFSLPSLALLGLQGSLNNNKAVTIPKGCVLAYRVRLLRVFLFNLWDIPYICNDSMQTFPKIRRVPCSAFISPTQMISEEPEEEKLIGE
For B7, the “pyroptosis, Sytox staining” value is “abolished its activity”.
